In publication PMC9394524:

Target: Kel1 (UniProt P38853)
Test: GFP-trap IP of Kel1-GFP, anti-FLAG blot
Conditions: reference: wild-type Sst2-3xFLAG; sites S539

RGS Sst2 (from UniProt P11972) S539A
binding against the reference: stronger
